Experimental data as given in patent US20240325445A1 (Regeneron, published 2024).

Key:
[1] = molecular target: human B-cell maturation antigen (BCMA) on cells (human) (UniProt Q02223); assay: cell-based or functional assay
[2] = molecular target: irrelevant protein fused to hIgG1-Fc (human); assay: flow cytometry; 10 ug/ml Fc isotype control on Jurkat/NFATLuc cells carrying the CAR, Alexa 647 secondary antibody
[3] = molecular target: T1, human B-cell maturation antigen (BCMA) on cells (human, UniProt Q02223 1-184); assay: cell-based or functional assay
T1 sequence: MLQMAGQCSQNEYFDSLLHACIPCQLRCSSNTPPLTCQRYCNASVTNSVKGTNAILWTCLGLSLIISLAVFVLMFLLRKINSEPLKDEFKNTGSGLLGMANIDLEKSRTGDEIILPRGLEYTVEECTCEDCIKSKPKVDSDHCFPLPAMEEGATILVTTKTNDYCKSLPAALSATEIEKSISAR

[4] = molecular target: T1, human B-cell maturation antigen (BCMA) …; assay: cell-based or functional assay; remark: listed apart in the source
[5] = molecular target: T2, BCMA extracellular domain fused to an hIgG1-Fc (human, UniProt Q02223 1-54); assay: flow cytometry; 10 ug/ml BCMA ecto-hFc on Jurkat/NFATLuc cells carrying the CAR, Alexa 647 secondary antibody
T2 construct: also called BCMA ecto-hFc; BCMA-hFc; not shown: human IgG1 Fc
T2 sequence: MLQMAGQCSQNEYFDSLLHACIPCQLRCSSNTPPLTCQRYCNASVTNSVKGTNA
Experimental: Relative cell surface expression of the BCMA CAR constructs in Jurkat/NFATLuc cells was accessed by flow cytometry. […] Cells were then washed and fixed using a 50% solution of BD Cytofix (BD, Cat #554655) diluted in staining buffer. Samples were run on the Intellicyt iQue flow cytometer and analyzed by FlowJo 10.2 to calculate the mean fluorescent intensity (MFI). The signal to noise ratio (S:N) is determined by taking the ratio of the BCMA-hFc or Fc isotype control MFI to the secondary antibody alone MFI.

Work on “control chimeric antigen receptor with an irrelevant scFv (17363)” yielded a percent cytotoxicity (calcein release), H929 target cells, T effector:target ratio 50, mean [1] of -0.8% and a percent cytotoxicity (calcein release), MOLP8 target cells, T effector:target ratio 50, mean [1] of -3.1%.

B1: BCMA 16747 VL-VH chimeric antigen receptor (scFv of mAb16747) (scFv)
chain: DIQMTQSPSSVSASVGDRVTITCRASQGINNWLVWYQQKPGKAPKLLIYAATSLQSGVPSRFSGSGSGTDFTLTISSLQPEDFATYYCQQANSFPPTFGQGTKLEIKGGGGSGGGGSGGGGSQVQLVESGGGLVKPGGSLRLSCAASGFTFSDYYISWIRQAPGKGLEWVSYISSSGSSIKYADSVKGRFTISRDNAKNSLYLQMNSLRAEDTAVYYCAREGGNYGMDVWGQGTTVTVSSTTTPAPRPPTPAPTIASQPLSLRPEACRPAAGGAVHTRGLDFACDIYIWAPLAGTCGVLLLSLVITLYCKRGRKKLLYIFKQPFMRPVQTTQEEDGCSCRFPEEEEGGCELRVKFSRSADAPAYKQGQNQLYNELNLGRREEYDVLDKRRGRDPEMGGKPRRKNPQEGLYNELQKDKMAEAYSEIGMKGERRRGKGHDGLYQGLSTATKDTYDALHMQALPPR
notes: a linker before the hinge or a signal peptide may be present
With B1 the S:N (Isotype-hFc) (ratio of MFI to secondary antibody alone) [2] was 1.3, the “CAR-T Max Activity (NFAT-luciferase, S:N), APC Daudi” value (shortened to “CAR-T Max Activity … APC Daudi”) [3] was 14 S:N (highest RLU / lowest RLU) and the “CAR-T Max Activity (NFAT-luciferase, S:N), APC RAJI” value (“CAR-T Max Activity … APC RAJI” below) [3] was 38.9 S:N (highest RLU / lowest RLU). For the same molecule, the “CAR-T Max Activity (NFAT-luciferase, S:N), APC RPMI8226” value (“CAR-T Max Activity … APC RPMI8226” for short) [3] was 12.5 S:N (highest RLU / lowest RLU), the “percent cytotoxicity (calcein release), H929 target cells, T effector:target ratio 0.78, mean” value [4] was 0.9% and the “percent cytotoxicity (calcein release), H929 target cells, T effector:target ratio 1.56, mean” value [4] was 1.8%. The “percent cytotoxicity (calcein release), H929 target cells, T effector:target ratio 3.13, mean” value [4] was 2.9%, the “percent cytotoxicity (calcein release), H929 target cells, T effector:target ratio 6.25, mean” value [4] was 4.2% and the “percent cytotoxicity (calcein release), H929 target cells, T effector:target ratio 12.5, mean” value [4] was 9.3%. The “percent cytotoxicity (calcein release), H929 target cells, T effector:target ratio 25, mean” value [4] was 19.4%, the “percent cytotoxicity (calcein release), H929 target cells, T effector:target ratio 50, mean” value [4] was 29.3% and the “percent cytotoxicity (calcein release), MOLP8 target cells, T effector:target ratio 0.78, mean” value [4] was -2.9%. The “percent cytotoxicity (calcein release), MOLP8 target cells, T effector:target ratio 1.56, mean” value [4] was 0.2%, the “percent cytotoxicity (calcein release), MOLP8 target cells, T effector:target ratio 3.13, mean” value [4] was 2.2% and the “percent cytotoxicity (calcein release), MOLP8 target cells, T effector:target ratio 6.25, mean” value [4] was 5.8%. The “percent cytotoxicity (calcein release), MOLP8 target cells, T effector:target ratio 12.5, mean” value [4] was 8.2%, the “percent cytotoxicity (calcein release), MOLP8 target cells, T effector:target ratio 25, mean” value [4] was 10.9% and the “percent cytotoxicity (calcein release), MOLP8 target cells, T effector:target ratio 50, mean” value [4] was 14%. For the same molecule, the “S:N (BCMA-hFc)” value [5] was 209 ratio of MFI to secondary antibody alone.

B2: BCMA 16711 VL-VH chimeric antigen receptor (scFv of mAb16711) (scFv)
chain: DIQMTQSPSSVSASVGDRVTITCRASRGISSWLAWYQQKPGKAPKLLIHAASSLQSGVPSRFSGSGSGTDFTLTISSLQPEDFATYYCQQAISFPFTFGPGTKVDIKGGGGSGGGGSGGGGSQVQLVESGGGVVQPGRSLRLSCAASGFTFSTYGIHWVRQAPGKGLEWVAVILHDGSSNYYAESVKGRFIISRDNSKNTLYLQMNSLRAEDTALYYCTKRYSEAAGPNWFDPWGQGTLVTVSSTTTPAPRPPTPAPTIASQPLSLRPEACRPAAGGAVHTRGLDFACDIYIWAPLAGTCGVLLLSLVITLYCKRGRKKLLYIFKQPFMRPVQTTQEEDGCSCRFPEEEEGGCELRVKFSRSADAPAYKQGQNQLYNELNLGRREEYDVLDKRRGRDPEMGGKPRRKNPQEGLYNELQKDKMAEAYSEIGMKGERRRGKGHDGLYQGLSTATKDTYDALHMQALPPR
notes: 3C7 cells; a linker before the hinge or a signal peptide may be present; also called 16711 VL-VH CART; 16711 CAR
For B2, the S:N (Isotype-hFc) (ratio of MFI to secondary antibody alone) [2] was 1.2, the “CAR-T Max Activity … APC Daudi” value [3] was 2.6 S:N (highest RLU / lowest RLU) and the “CAR-T Max Activity … APC RAJI” value [3] was 7.9 S:N (highest RLU / lowest RLU). For the same molecule, the “CAR-T Max Activity … APC RPMI8226” value [3] was 1.8 S:N (highest RLU / lowest RLU) and the “S:N (BCMA-hFc)” value [5] was 3.7 ratio of MFI to secondary antibody alone.

B3: BCMA 16732 VL-VH chimeric antigen receptor (scFv of mAb16732) (scFv)
chain: DIQMTQSPSSLSASVGDRVTITCRTSQSIGNYLNWFQQKPGKAPKLLIYTASSLQNGVPSRFTGSGSGTDFTLTISSLQPEDFVIYYCQQSFSTPYTFGQGTKLEIKGGGGSGGGGSGGGGSEVQLVESGGGLVQPGRSLRLSCAASGFTFDDYAMHWVRQAPGKGLEWVSGISWNSGNMGYADSVKGRFTISRDNAKNSLFLQMHSLRAEDTAFYYCAKVRLTAFDFWGQGTLVTVSSTTTPAPRPPTPAPTIASQPLSLRPEACRPAAGGAVHTRGLDFACDIYIWAPLAGTCGVLLLSLVITLYCKRGRKKLLYIFKQPFMRPVQTTQEEDGCSCRFPEEEEGGCELRVKFSRSADAPAYKQGQNQLYNELNLGRREEYDVLDKRRGRDPEMGGKPRRKNPQEGLYNELQKDKMAEAYSEIGMKGERRRGKGHDGLYQGLSTATKDTYDALHMQALPPR
notes: 3C7 cells; a linker before the hinge or a signal peptide may be present; also called 16732 VL-VH CART; 16732 CAR
In the case of B3, the S:N (Isotype-hFc) (ratio of MFI to secondary antibody alone) [2] is reported as 1, the “CAR-T Max Activity … APC Daudi” value [3] is reported as 4.9 S:N (highest RLU / lowest RLU) and the “CAR-T Max Activity … APC RAJI” value [3] is reported as 16.8 S:N (highest RLU / lowest RLU). For the same molecule, the “CAR-T Max Activity … APC RPMI8226” value [3] was 5.2 S:N (highest RLU / lowest RLU) and the “S:N (BCMA-hFc)” value [5] was 13.1 ratio of MFI to secondary antibody alone.
